Experimental data taken from article PMC9352680, “A comprehensive thermodynamic model for RNA binding by the Saccharomyces cerevisiae Pumilio protein PUF4”.
Substitutions are numbered along the chain they refer to. In names and notes the source's numbering stands.

T1: PUF4 RNA-binding domain (Saccharomyces cerevisiae, UniProt P25339 537-888)
T1 sequence: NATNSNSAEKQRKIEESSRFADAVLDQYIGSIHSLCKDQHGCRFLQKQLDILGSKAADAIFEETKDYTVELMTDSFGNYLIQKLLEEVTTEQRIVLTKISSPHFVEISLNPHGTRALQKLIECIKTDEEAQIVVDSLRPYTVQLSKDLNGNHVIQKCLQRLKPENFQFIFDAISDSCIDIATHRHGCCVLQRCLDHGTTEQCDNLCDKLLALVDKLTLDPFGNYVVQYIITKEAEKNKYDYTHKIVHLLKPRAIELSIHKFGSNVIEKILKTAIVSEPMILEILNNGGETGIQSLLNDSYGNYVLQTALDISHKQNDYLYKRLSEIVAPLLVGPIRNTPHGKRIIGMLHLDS

B1: Ie_S1_P4E.1_K4.1_C4.1_H4.1_[+3TCTCT]_A4.1_F4.1_T4.1 (ssRNA)
RNA: UCUCUUUGUUCUCUAUAUUAUCUCUU
B2: Ie_S1_P3E.2_K3.1_C3.2_H3.1_A3.1_F3.1_[+8CCCT]_T3.2 (ssRNA)
RNA: UCUCUUCUUGUAUAUACCCUUAUCUCUU
B3: Ie_S1_P4E.1_K4.1_C4.1_H4.1_[+1TCT]_A4.1_F4.1_T4.1 (ssRNA)
RNA: UCUCUUUUCUGUAUAUUAUCUCUU
B4: Ie_S1_P3E.2_K3.1_C3.2_H3.1_A3.1_F3.1_[+8TTCCT]_T3.2 (ssRNA)
RNA: UCUCUUCUUGUAUAUAUUCCUUAUCUCUU
B5: Ie_S1_P3E.2_K3.1_C3.2_H3.1_A3.1_F3.1_[+8TTT]_T3.2 (ssRNA)
RNA: UCUCUUCUUGUAUAUAUUUUAUCUCUU
B6: Ie_S1_P3E.2_K3.1_C3.2_H3.1_A3.1_F3.1_[+8CTC]_T3.2 (ssRNA)
RNA: UCUCUUCUUGUAUAUACUCUAUCUCUU
B7: Ie_S1_P4E.1_K4.1_C4.1_H4.1_[+3TTT]_A4.1_F4.1_T4.1 (ssRNA)
RNA: UCUCUUUGUUUUAUAUUAUCUCUU
B8: Ie_S1_P4E.1_K4.1_C4.1_H4.1_[+1CTCTC]_A4.1_F4.1_T4.1 (ssRNA)
RNA: UCUCUUUCUCUCGUAUAUUAUCUCUU
B9: Ie_S1_P4E.1_K4.1_C4.1_H4.1_[+1CCC]_A4.1_F4.1_T4.1 (ssRNA)
RNA: UCUCUUUCCCGUAUAUUAUCUCUU
B10: Ie_S1_P3E.2_K3.1_C3.2_H3.1_A3.1_F3.1_[+8CCCTT]_T3.2 (ssRNA)
RNA: UCUCUUCUUGUAUAUACCCUUUAUCUCUU
B11: Ie_S1_P4E.1_K4.1_C4.1_H4.1_[+2TT]_A4.1_F4.1_T4.1 (ssRNA)
RNA: UCUCUUUGUUUAUAUUAUCUCUU
B12: Ib_S1_P5E.1_K5.1_C5.1_H5.1_A5.1_[T6A]_[A7G]_F5.1_T5.1 (ssRNA)
RNA: UCUCUUUGUAUAGUUAUCUCUU
B13: Ie_S1_P4E.1_K4.1_C4.1_H4.1_[+2CTCT]_A4.1_F4.1_T4.1 (ssRNA)
RNA: UCUCUUUGCUCUUAUAUUAUCUCUU
B14: Ie_S1_P4E.1_K4.1_C4.1_H4.1_[+2TTCC]_A4.1_F4.1_T4.1 (ssRNA)
RNA: UCUCUUUGUUCCUAUAUUAUCUCUU
B15: Ie_S1_P4E.1_K4.1_C4.1_H4.1_[+3CTCT]_A4.1_F4.1_T4.1 (ssRNA)
RNA: UCUCUUUGUCUCUAUAUUAUCUCUU
B16: Ie_S1_P4E.1_K4.1_C4.1_H4.1_[+3TCT]_A4.1_F4.1_T4.1 (ssRNA)
RNA: UCUCUUUGUUCUAUAUUAUCUCUU
B17: Ie_S1_P4E.1_K4.1_C4.1_H4.1_[+3CTCTC]_A4.1_F4.1_T4.1 (ssRNA)
RNA: UCUCUUUGUCUCUCAUAUUAUCUCUU
B18: Ie_S1_P4E.1_K4.1_C4.1_H4.1_[+1TC]_A4.1_F4.1_T4.1 (ssRNA)
RNA: UCUCUUUUCGUAUAUUAUCUCUU
B19: Ie_S1_P4E.1_K4.1_C4.1_H4.1_[+3TC]_A4.1_F4.1_T4.1 (ssRNA)
RNA: UCUCUUUGUUCAUAUUAUCUCUU
B20: Ic_S2_P3E.1_K3.1_C3.1_H3.1_A3.1_F3.1_[T7G]_[A8C]_T3.1 (ssRNA)
RNA: UUUGAUUAAUAUGAUAUCGUUCUUUCUUGUAUAGCUUCUUUCUCGAUAUCAUAUUAAUCUUU
B21: Ic_S2_P3E.1_K3.1_C3.1_H3.1_A3.1_F3.1_[T7G]_[A8T]_T3.1 (ssRNA)
RNA: B20 RNA with C35U
B22: Ie_S1_P4E.1_K4.1_C4.1_H4.1_[+1CT]_A4.1_F4.1_T4.1 (ssRNA)
RNA: UCUCUUUCUGUAUAUUAUCUCUU
B23: Ie_S1_P4E.1_K4.1_C4.1_H4.1_A4.1_[+6C]_F4.1_T4.1 (ssRNA)
RNA: UCUCUUUGUAUACUUAUCUCUU
B24: If_S1_P5E.1_K5.1_C5.1_H5.1_A5.1_F5.1_T5.1 (ssRNA)
RNA: UCUCUUUGUAUUAUUAUCUCUU
B25: Ie_S1_P4E.1_K4.1_C4.1_H4.1_[+1TTCC]_A4.1_F4.1_T4.1 (ssRNA)
RNA: UCUCUUUUUCCGUAUAUUAUCUCUU
B26: Ie_S1_P4E.1_K4.1_C4.1_H4.1_[+2TCC]_A4.1_F4.1_T4.1 (ssRNA)
RNA: UCUCUUUGUCCUAUAUUAUCUCUU
B27: Ie_S1_P4E.1_K4.1_C4.1_H4.1_[+3CTC]_A4.1_F4.1_T4.1 (ssRNA)
RNA: UCUCUUUGUCUCAUAUUAUCUCUU
B28: Ie_S1_P4E.1_K4.1_C4.1_H4.1_[+3TTCC]_A4.1_F4.1_T4.1 (ssRNA)
RNA: UCUCUUUGUUUCCAUAUUAUCUCUU
B29: Ie_S1_P4E.1_K4.1_C4.1_H4.1_[+2CCCT]_A4.1_F4.1_T4.1 (ssRNA)
RNA: UCUCUUUGCCCUUAUAUUAUCUCUU
B30: Ie_S1_P4E.1_K4.1_C4.1_H4.1_[+2TCTCT]_A4.1_F4.1_T4.1 (ssRNA)
RNA: UCUCUUUGUCUCUUAUAUUAUCUCUU
B31: Ie_S1_P4E.1_K4.1_C4.1_H4.1_A4.1_F4.1_[+8T]_T4.1 (ssRNA)
RNA: UCUCUUUGUAUAUUUAUCUCUU

What follows are binders tested against T1, PUF4 RNA-binding domain (assay: Mg; RNA-MaP; 20 mM Na-HEPES pH 7.4, 30 mM KOAc, 0.75 mM MgCl2, 0.1% Tween-20, 5% glycerol, 0.1 mg/mL BSA, 2 mM DTT; 25 C; 0.0125-409.6 nM protein). Conditions: tags: N-His6-TEV cleaved; C-SNAP kept, Cy3B-labelled; label: tethered on chip by stalled RNA polymerase.

**Q.** For B1, which Kd is on record?
**A.** 49.6 nM

**Q.** B2 was tested. Which Kd did it give?
**A.** 12.3 nM

**Q.** Which Kd does the source give for B3 here?
**A.** 0.546 nM

**Q.** B4 was tested. Which Kd did it give?
**A.** 6.43 nM

**Q.** How did the Kd turn out when B5 was run?
**A.** 6.71 nM

**Q.** With B6 as the binder, how does the Kd read?
**A.** 11.7 nM

**Q.** For B7, which Kd is on record?
**A.** 32.9 nM

**Q.** B8 was tested. Which Kd did it give?
**A.** 27.9 nM

**Q.** Which Kd does the source give for B9 here?
**A.** 22.1 nM

**Q.** B10 was tested. Which Kd did it give?
**A.** 9.52 nM

**Q.** Which Kd does the source give for B11 here?
**A.** 60.9 nM

**Q.** For B12, which Kd is on record?
**A.** 7.36 nM

**Q.** With B13 as the binder, how does the Kd read?
**A.** 984 nM

**Q.** How did the Kd turn out when B14 was run?
**A.** 101 nM

**Q.** How did the Kd turn out when B15 was run?
**A.** 121 nM

**Q.** With B16 as the binder, how does the Kd read?
**A.** 27.2 nM

**Q.** How did the Kd turn out when B17 was run?
**A.** 948 nM

**Q.** B18 was tested. Which Kd did it give?
**A.** 24.4 nM

**Q.** How did the Kd turn out when B19 was run?
**A.** 134 nM

**Q.** Which Kd does the source give for B20 here?
**A.** 109 nM

**Q.** For B21, which Kd is on record?
**A.** 25.9 nM

**Q.** For B22, which Kd is on record?
**A.** 0.72 nM

**Q.** Which Kd does the source give for B23 here?
**A.** 4.35 nM

**Q.** How did the Kd turn out when B24 was run?
**A.** 4.68 nM

**Q.** Which Kd does the source give for B25 here?
**A.** 36.3 nM

**Q.** B26 was tested. Which Kd did it give?
**A.** 40.4 nM

**Q.** Which Kd does the source give for B27 here?
**A.** 37.3 nM

**Q.** With B28 as the binder, how does the Kd read?
**A.** 83.7 nM

**Q.** How did the Kd turn out when B29 was run?
**A.** 1080 nM

**Q.** B30 was tested. Which Kd did it give?
**A.** 134 nM

**Q.** How did the Kd turn out when B31 was run?
**A.** 2.39 nM
